B1: Rabbit antibody 10273 (antibody, V domains shown)
VH: QSVEESGGRLVTPGTPLTLTCTVSGFSLSSYGMSWVRQAPGKGLEWIGIISSSGSTYYASWAKGRFTISKTSTTVDLKIASPTTEDTATYFCARDHIYRYDDYGDYPTYYGMDPWGPGTLVTVSS
VL: AVVLTQTPSPMSAAVGGTVTISCQSSQSVYNNNDLAWYQQKPGQPPKLLIYRASTLASGVPSRFSGSGSGTQFTLTISGVQCDDAATYYCLGGYDDDVDTYTFGGGTEVVVK
B2: 10273 gL2-Q1RgH1-D19N-Y4F (antibody, human IgG4 S228P, kappa, V domains shown)
VH: EVQLVESGGGLVQPGGSLRLSCAVSGFSLSSYGMSWVRQAPGKGLEWIGIISSSGSTYYASWAKGRFTISKDSSKNTVYLQMNSLRAEDTAVYYCARDHIFRYDDYGDYPTYYGMNPWGQGTTVTVSS
VL: AIQLTQSPSSLSASVGDRVTITCRSSQSVYNNNDLAWYQQKPGKAPKLLIYRASTLASGVPSRFSGSGSGTDFTLTISSLQPEDFATYYCLGGYDDDVDTYTFGGGTKVEIKR
modifications: sulphation (+80 Da) of Tyr 9 of CDR-H3, 85% of heavy chain (Table 7)
notes: Humanized graft, hIgG4P
B3: 10273 gL2-Q1RgH1-D19N-Y16F (antibody, human IgG4 S228P, kappa, V domains shown)
VH: EVQLVESGGGLVQPGGSLRLSCAVSGFSLSSYGMSWVRQAPGKGLEWIGIISSSGSTYYASWAKGRFTISKDSSKNTVYLQMNSLRAEDTAVYYCARDHIYRYDDYGDYPTYFGMNPWGQGTTVTVSS
VL: AIQLTQSPSSLSASVGDRVTITCRSSQSVYNNNDLAWYQQKPGKAPKLLIYRASTLASGVPSRFSGSGSGTDFTLTISSLQPEDFATYYCLGGYDDDVDTYTFGGGTKVEIKR
modifications: sulphation (+80 Da) of Tyr 9 of CDR-H3, 75% of heavy chain (Table 7)
notes: Humanized graft, hIgG4P
B4: 10273 gL2-Q1RgH1-D19N-Y9F (antibody, human IgG4 S228P, kappa, V domains shown)
VH: EVQLVESGGGLVQPGGSLRLSCAVSGFSLSSYGMSWVRQAPGKGLEWIGIISSSGSTYYASWAKGRFTISKDSSKNTVYLQMNSLRAEDTAVYYCARDHIYRYDDFGDYPTYYGMNPWGQGTTVTVSS
VL: AIQLTQSPSSLSASVGDRVTITCRSSQSVYNNNDLAWYQQKPGKAPKLLIYRASTLASGVPSRFSGSGSGTDFTLTISSLQPEDFATYYCLGGYDDDVDTYTFGGGTKVEIKR
notes: Humanized graft, hIgG4P
B5: 10273 gL2gH1 (antibody, human IgG4 S228P, kappa, V domains shown)
VH: EVQLVESGGGLVQPGGSLRLSCAVSGFSLSSYGMSWVRQAPGKGLEWIGIISSSGSTYYASWAKGRFTISKDSSKNTVYLQMNSLRAEDTAVYYCARDHIYRYDDYGDYPTYYGMDPWGQGTTVTVSS
VL: AIQLTQSPSSLSASVGDRVTITCQSSQSVYNNNDLAWYQQKPGKAPKLLIYRASTLASGVPSRFSGSGSGTDFTLTISSLQPEDFATYYCLGGYDDDVDTYTFGGGTKVEIKR
modifications: sulphation (+80 Da) of Tyr 9 of CDR-H3, 95% of heavy chain (hIgG4P, Table 7)
notes: Humanized graft
B6: 10273 gL2-Q1RgH1-D19N-Y15F (antibody, human IgG4 S228P, kappa, V domains shown)
VH: EVQLVESGGGLVQPGGSLRLSCAVSGFSLSSYGMSWVRQAPGKGLEWIGIISSSGSTYYASWAKGRFTISKDSSKNTVYLQMNSLRAEDTAVYYCARDHIYRYDDYGDYPTFYGMNPWGQGTTVTVSS
VL: AIQLTQSPSSLSASVGDRVTITCRSSQSVYNNNDLAWYQQKPGKAPKLLIYRASTLASGVPSRFSGSGSGTDFTLTISSLQPEDFATYYCLGGYDDDVDTYTFGGGTKVEIKR
modifications: sulphation (+80 Da) of Tyr 9 of CDR-H3, 85% of heavy chain (Table 7)
notes: Humanized graft, hIgG4P
B7: 10273 gL2-Q1RgH1-D19N-T14S (antibody, human IgG4 S228P, kappa, V domains shown)
VH: EVQLVESGGGLVQPGGSLRLSCAVSGFSLSSYGMSWVRQAPGKGLEWIGIISSSGSTYYASWAKGRFTISKDSSKNTVYLQMNSLRAEDTAVYYCARDHIYRYDDYGDYPSYYGMNPWGQGTTVTVSS
VL: AIQLTQSPSSLSASVGDRVTITCRSSQSVYNNNDLAWYQQKPGKAPKLLIYRASTLASGVPSRFSGSGSGTDFTLTISSLQPEDFATYYCLGGYDDDVDTYTFGGGTKVEIKR
modifications: sulphation (+80 Da) of Tyr 9 of CDR-H3, 65% of heavy chain (Table 7)
notes: Humanized graft, hIgG4P
B8: 10273 gL2-Q1RgH1-D19N-T14V (antibody, human IgG4 S228P, kappa, V domains shown)
VH: EVQLVESGGGLVQPGGSLRLSCAVSGFSLSSYGMSWVRQAPGKGLEWIGIISSSGSTYYASWAKGRFTISKDSSKNTVYLQMNSLRAEDTAVYYCARDHIYRYDDYGDYPVYYGMNPWGQGTTVTVSS
VL: AIQLTQSPSSLSASVGDRVTITCRSSQSVYNNNDLAWYQQKPGKAPKLLIYRASTLASGVPSRFSGSGSGTDFTLTISSLQPEDFATYYCLGGYDDDVDTYTFGGGTKVEIKR
modifications: sulphation (+80 Da) of Tyr 9 of CDR-H3, 75% of heavy chain (Table 7)
notes: Humanized graft, hIgG4P
B9: 10273 gL2-Q1RgH1-D19N-Y6F (antibody, human IgG4 S228P, kappa, V domains shown)
VH: EVQLVESGGGLVQPGGSLRLSCAVSGFSLSSYGMSWVRQAPGKGLEWIGIISSSGSTYYASWAKGRFTISKDSSKNTVYLQMNSLRAEDTAVYYCARDHIYRFDDYGDYPTYYGMNPWGQGTTVTVSS
VL: AIQLTQSPSSLSASVGDRVTITCRSSQSVYNNNDLAWYQQKPGKAPKLLIYRASTLASGVPSRFSGSGSGTDFTLTISSLQPEDFATYYCLGGYDDDVDTYTFGGGTKVEIKR
modifications: sulphation (+80 Da) of Tyr 9 of CDR-H3, 75% of heavy chain (Table 7)
notes: Humanized graft, hIgG4P
B10: 10273 gL2-Q1RgH1-D19N-Y12F (antibody, human IgG4 S228P, kappa, V domains shown)
VH: EVQLVESGGGLVQPGGSLRLSCAVSGFSLSSYGMSWVRQAPGKGLEWIGIISSSGSTYYASWAKGRFTISKDSSKNTVYLQMNSLRAEDTAVYYCARDHIYRYDDYGDFPTYYGMNPWGQGTTVTVSS
VL: AIQLTQSPSSLSASVGDRVTITCRSSQSVYNNNDLAWYQQKPGKAPKLLIYRASTLASGVPSRFSGSGSGTDFTLTISSLQPEDFATYYCLGGYDDDVDTYTFGGGTKVEIKR
modifications: sulphation (+80 Da) of Tyr 9 of CDR-H3, 75% of heavy chain (Table 7)
notes: Humanized graft, hIgG4P
B11: LEKTI D5 Fab fusion (other)
heavy: EVQLLESGGGLVQPGGSLRLSCAVSGIDLSNYAINWVRQAPGKGLEWIGIIWASGTTFYATWAKGRFTISRDNSGGGGSGGGGSREIVKLCSQYQNQAKNGILFCTRENDPIRGPDGKMHGNLCSMCQAYFQAENEEKKKAEARARSGGGGGGGGSKNTVYLQMNSLRAEDTAVYYCARTVPGYSTAPYFDLWGQGTLVTVSSASTKGPSVFPLAPSSKSTSGGTAALGCLVKDYFPEPVTVSWNSGALTSGVHTFPAVLQSSGLYSLSSVVTVPSSSLGTQTYICNVNHKPSNTKVDKKVEPKSCHHHHHHHHHH
light: DIQMTQSPSSVSASVGDRVTITCQSSPSVWSNFLSWYQQKPGKAPKLLIYEASKLTSGVPSRFSGSGSGTDFTLTISSLQPEDFATYYCGGGYSSISDTTFGGGTKVEIKRTVAAPSVFIFPPSDEQLKSGTASVVCLLNNFYPREAKVQWKVDNALQSGNSQESVTEQDSKDSTYSLSSTLTLSKADYEKHKVYACEVTHQGLSSPVTKSFNRGEC
notes: also called LEKTI D5 Fab fusion protein; LEKTI D5Fab fusion protein
B12: 10273gL2-Q1RgH1-D19N (antibody, human IgG4 S228P, kappa, V domains shown)
VH: EVQLVESGGGLVQPGGSLRLSCAVSGFSLSSYGMSWVRQAPGKGLEWIGIISSSGSTYYASWAKGRFTISKDSSKNTVYLQMNSLRAEDTAVYYCARDHIYRYDDYGDYPTYYGMNPWGQGTTVTVSS
VL: AIQLTQSPSSLSASVGDRVTITCRSSQSVYNNNDLAWYQQKPGKAPKLLIYRASTLASGVPSRFSGSGSGTDFTLTISSLQPEDFATYYCLGGYDDDVDTYTFGGGTKVEIKR
modifications: sulphation (+80 Da) of Tyr 9 of CDR-H3, 80% of heavy chain (Table 7)
notes: Humanized graft, hIgG4P

Several values for one entry are separate records, joined by “and”; a condition that tells them apart may be missing. Equal entries are not always repeated.

The term Kd denotes a measure of binding affinity in units of concentration. The low end stands for tighter binding, the high end for weaker binding. What is called koff is the first-order rate constant of dissociation. The term kon denotes the second-order rate constant of association. Higher therefore signals fast association.

In the first assay the target is T1, Active human KLK5 (human, UniProt Q9Y337 67-293).
Test: not given
As to Human LEKTI D5 rabbit Fc (Fc fusion), the IC50 (read off the curve) is 200 nM.

A further assay concerns the target T1, Active human KLK5. The experiment in a line: cell-based or functional assay.
Human LEKTI D5 rabbit Fc (Fc fusion): the IC50 (M), inhibition of kallikrein protease activity (fluorogenic peptide substrate) was determined as 1.03e-10 M.

Regarding B1, the “IC50 (read off the curve)” value was approximately 50 nM.

The target in a further assay is T1, Active human KLK5. The experiment in a line: SPR (Biacore T200, 25 C); IgG captured on anti-human IgG Fc, human KLK5 as analyte; 1:1 model. The method, then:
(§1) The kinetics of these grafts for binding to human KLK5 were assessed by surface plasmon resonance (Biacore T200) at 25° C.
(§2) A goat anti-human IgG Fc specific antibody (Jackson ImmunoResearch) was immobilised on a CM5 Sensor Chip via amine coupling chemistry to a level of approximately 7000RU. Each analysis cycle consisted of capture of the anti-KLK5 IgG molecules to the anti Fc surface, injection of KLK5 analyte (prepared in house) for 180 s at 30 μl/min followed by 600 s dissociation. At the end of each cycle the surface was regenerated at a flowrate of 10 μL/min using a 60 s injection of 50 mM HCl followed by a 30 s injection of 5 mM NaOH and a final 60 s injection of 50 mM HCl. Human KLK5 was titrated from 20 nM to 0.74 nM (3×3-fold serial dilutions) in HBS-EP+running buffer (GE Healthcare) supplemented with NaCl to a final concentration of 300 mM. Buffer blank injections were included to subtract instrument noise and drift.
(§3) Kinetic parameters were determined using a 1:1 binding model using Biacore T200 Evaluation software.
(In SPR one partner is held on a chip, and binding of the other changes the refractive index at the surface.)
The molecule B2 yielded a Kd of 1.15 nM, a koff of 0.000519 s⁻¹ and a kon of 451000 M⁻¹ s⁻¹.

Take B3: the Kd is 5.77 nM, the koff was found to be 0.0016 s⁻¹ and the kon turned out to be 277000 M⁻¹ s⁻¹.

Consider B4, for which binding was characterised by a dissociation constant (Kd) of 0.554 nM, the koff is 0.0002 s⁻¹ and the kon worked out at 362000 M⁻¹ s⁻¹.

The molecule B5 showed a Kd of 0.164 nM, a koff of 8.45e-05 s⁻¹ and a kon of 514000 M⁻¹ s⁻¹.

For B6, the Kd turned out to be 0.249 nM, the koff is 0.000139 s⁻¹ and the kon worked out at 558000 M⁻¹ s⁻¹.

Take B7: the Kd is 0.644 nM, the koff turned out to be 0.000165 s⁻¹ and the kon came to 257000 M⁻¹ s⁻¹.

For the molecule B8, the Kd amounted to 6.9 nM, the koff was 0.00251 s⁻¹ and the kon was determined as 364000 M⁻¹ s⁻¹.

As for B9, the Kd was 0.625 nM, the koff amounted to 0.000186 s⁻¹ and the kon was 298000 M⁻¹ s⁻¹.

With B10, binding was put at a Kd of 0.319 nM, the koff was found to be 0.000138 s⁻¹ and the kon was 432000 M⁻¹ s⁻¹.

For another assay, the target named is T1, Active human KLK5. Nature of the assay: SPR; rabbit antibody 10273 captured on anti-rabbit Fc and saturated with 20 nM human KLK5, LEKTI D5 Fab fusion as analyte (KLK5 in complex with 10273); average value n = 2; human KLK5 already in complex with captured rabbit antibody 10273; LEKTI D5 Fab fusion as analyte; average n = 2. The method, then:
(§4) 20 nM of human KLK5 was then injected until the surface reached saturation. LEKTI D5 Fab fusion protein (generated as described in example 1) was then injected at concentrations between 30 μM and 100 nM. Values from buffer only injections were first subtracted from those obtained with the analytes before fitting to a 1:1 binding kinetic model in Biacore™ evaluation software (GE Life Sciences™)
(§5) As reference, LEKTI D5 Fab fusion protein was immobilised to the chip surface prior to monitoring the interaction with human KLK5.
Take B11: binding was characterised by a dissociation constant (Kd) of 13.4 nM.

For another assay, the target named is T1, Active human KLK5. The experiment in a line: SPR; rabbit antibody 10273 captured on anti-rabbit Fc and saturated with 20 nM human KLK5, LEKTI D5 Fab fusion as analyte (KLK5 in complex with 10273); 1:1 model. The protocol: as §4, §5
For B11, the koff was determined as 0.000565 s⁻¹ and the kon amounted to 28700 M⁻¹ s⁻¹.

In a further assay the target is T1, Active human KLK5. Nature of the assay: SPR (Biacore T200, 25 C); IgG captured on anti-human IgG Fc, human KLK5 as analyte; 1:1 model; duplicate sample. The method, then:
as §1, §2, §3
Take B12: the Kd is 0.41 nM and 0.309 nM; the koff was 0.000175 s⁻¹ and 0.000133 s⁻¹; the kon is 427000 M⁻¹ s⁻¹ and 257000 M⁻¹ s⁻¹.
